Results taken from patent US5827498A, “Tumor affinity peptide, and radioactive diagnostic agent and radioactive therapeutic agent containing the peptide” (Nihon Medi-Physics Co., Ltd., priority 1994, dated 1998).
Where two headings read alike, the source gives them in different places. Blank lines part the entries; values can stand above or below the substance they belong to. No end group written: not given here.

Legend:
[1] = set-up: species or system SD rats (Sprague-Dawley Rats); conditions: rat, in vivo
Experimental: To SD rats (Sprague-Dawley Rats) weighing 140 to 200 grams and previously Ravonal anesthetized, technetium-99m-peptide-1 obtained in Example 6, technetium-99m-peptide-2, 3 and 4 obtained in Example 7, technetium-99m-peptide-5, 6, 7, 8, 9, 10, 11, 12, 13 and KYCAREPPTRTNAYWGQG (hereinafter referred to as "peptide-14") prepared according to the method of Example 6 were each administered to the tail vein in an amount of 35 MBq to 45 MBq. The animals were sacrificed 5, 30, 60 and 180 minutes later to determine distribution ratio of radioactivity in various organs using a single channel counter.

[2] = Time course of technetium-99m labeling yield in vitro (HPLC); assay type: physicochemical
Experimental: To 40.3 μmol/300 μl of glucoheptanate was added 130 nmol/50 μl of stannous chloride and 1049 MBq of sodium pertechnetate, and the entire volume was adjusted to 1.3 ml. After stirring, the mixture was left to stand still for 30 minutes at room temperature and then the labeling purity of glucoheptanate was confirmed to be 95% or more by cellulose acetate membrane electrophoresis. 242 MBq/300 μl of the mixture was added to 0.46 μmol/300 μl of peptide-1 obtained in Example 1 and the reaction was completed in a hot water bath at 100° C. in 20 minutes to yield the target technetium-99m-peptide-1. After cooling at room temperature, the peptide was confirmed to have a labeling purity of 98.3% according to HPLC method.
After technetium-99m-peptide-1 obtained in Example 6 and technetium-99m-peptides-2 to 4 obtained by the same method as in Example 6 were left to stand still for 1, 3 and 6 hours, the time course changes of technetium-99m labeling yield of the peptides were studied using liquid chromatography (HPLC method) under the following conditions:
Column: Millipore puresil 5 μm C18 (4.6×150 mm),
Eluent A: 0.1% TFA/purified water,
Eluent B: 0.1% TFA/acetonitrile,
Concentration gradient: 0 min. (10% B)→5 mins. (10% B)→35 mins. (50% B)→45 mins. (75% B).

[3] = In vitro stability of technetium-99m labeled peptide in human plasma (HPLC); assay type: in vitro ADME
Experimental: Technetium-99m-peptide-8 obtained in Example 8 was mixed with 10-fold equivalent of human plasma (ROCKLAND Inc.: STERILE PLASMA containing EDTA) and the mixture was incubated at 37° C. A mixture of technetium-99m-peptide-1 obtained in Example 6 was also prepared by the same method.
The mixture was filtered through a 0.2 μm membrane filter 5 minutes and 30 minutes after the mixing, and was subjected to HPLC analysis. In vitro stability was evaluated by comparing the pattern of HPLC with that of peptide-1 before the mixing procedure. The HPLC profiles of technetium-99m-peptide-1 and of each of the above technetium-99m-labeled peptides mixed with plasma at 4° C. at the 5 and 30 minute points and at 37° C. at the 5 and 30 minute points are shown in FIGS. 7, 8, 9, 10, 11, 12, 13, 14 and 15.

[4] = biological target: T1, epitope VTSAPDTRPAPGST of mucin core protein conjugated to bovine serum albumin (BSA) (Homo sapiens, UniProt P15941); assay type: binding
T1 construct: made in house; host or cells: chemical peptide synthesis (no expression host)
Experimental: The epitope VTSAPDTRPAPGST of mucin core protein, to which the conventional peptide YCAREPPTRTNAYWG is known to bind, was synthesized and further conjugated to bovine serum albumin (BSA). The conjugated peptide was used as an artificial antigen to measure antigen affinity of peptide-14 by radioimmunoassay (RIA). The assay will be described below in detail.
Each 200 μl of 10 μg/ml solution of the artificial antigen in 50 mmol sodium carbonate buffer of a pH of 9.5 was added to each of 2 ml tubes containing polystyrene beads of 6.35 mm in diameter. The tubes were stood still overnight at 4° C. Then, the inside of the tubes was washed three times by a washing agent of 0.05%(v/v) Tween 20 PBS (phosphate buffer saline, pH 7.5). In order to block the portions to which the artificial antigen is not bound of the surface of the polystyrene beads, 200 μl of 1% BSA-PBS was each added to each of the tubes. The tubes were stood still for 3 hours at room temperature. Then, the inside of the tubes was washed three times.
Peptide-14 was diluted to 500, 100, 50, 10, 5, 1, 0.5, 0.1 and 0.05 μg/ml with PBS containing 1% PRIONEX™ (an albumin substitute of Pentapharm, Ltd.). […] Each of the diluted peptide-containing solutions was added to each of the […] tubes, followed by adding thereto 100 μl of the previously-prepared antibody solution. The tubes were stood still for 3 hours. Then, the inside of the tubes was washed three times with the washing agent.
A sheep antimouse antibody labelled with iodine-125 (3.7 MBq/ml, made by Amersham Co.) was diluted 100-fold with 1% BSA-PBS. To each of the tubes, 200 μl of the diluted antimouse antibody was added. Then, the tubes were stood still for 2 hours at 37° C. Then, the inside of the tubes was washed three times with the washing agent, and radioactivity was measured by use of an auto well gammma ray counter.

Substance: KYCAD-REPPTD-RTFAYD-WGQG [peptide-10]
radioactivity in liver and small intestines compared with peptides having corresponding L-Arg [1]: reduced percentages of radioactivity in liver and small intestines

Substance: KYCAD-REPPTD-RTFAYWGQG [peptide-9]
radioactivity in liver and small intestines compared with peptides having corresponding L-Arg [1]: reduced percentages of radioactivity in liver and small intestines

Substance: KYCAD-REPPTRTFAYWGQG [peptide-7]
radioactivity in liver and small intestines compared with peptides having corresponding L-Arg [1]: reduced percentages of radioactivity in liver and small intestines

Substance: KYCAREPPTRTFAYWGQG [peptide-1]
technetium-99m labeling yield ([2]; 1 hr. standing after labeling): ≥ 98%
technetium-99m labeling yield ([2]; 1 hr. standing after labeling, listed as Peptide-1): 98.3%
technetium-99m labeling yield ([2]; 3 hr. standing after labeling): 97.2%
technetium-99m labeling yield ([2]; 6 hr. standing after labeling): ≥ 96%
technetium-99m labeling yield ([2]; 6 hr. standing after labeling, listed as Peptide-1): 96.6%
% of unidentified radioactive substance in plasma ([3]; 5 mins. later/4° C.): 5.3%
% of unidentified radioactive substance in plasma ([3]; 5 mins. later/37° C.): 12.4%
% of unidentified radioactive substance in plasma ([3]; 30 mins. later/4° C.): 40.1%
% of unidentified radioactive substance in plasma ([3]; 30 mins. later/37° C.): 59.4%

binding percentage ([4]; 5.0e-8 g/ml): 29.517%
binding percentage ([4]; 1.0e-7 g/ml): 27.890%
binding percentage ([4]; 5.0e-7 g/ml): 42.941%
binding percentage ([4]; 1.0e-6 g/ml): 38.129%
binding percentage ([4]; 5.0e-6 g/ml): 50.293%
binding percentage ([4]; 1.0e-5 g/ml): 60.056%
binding percentage ([4]; 5.0e-5 g/ml): 60.869%
binding percentage ([4]; 1.0e-4 g/ml): 58.585%
binding percentage ([4]; 5.0e-4 g/ml): 63.669%
Substance: KYCAREPPTRTNAYWGQG [peptide-14, KYCAREPPTRTNAYWGQG]

Substance: YCAREPPTRTFAYWG [peptide-3, peptide without N-terminal Lys, used for comparison]
technetium-99m labeling yield ([2]; 1 hr. standing after labeling): 96.3%
technetium-99m labeling yield ([2]; 3 hr. standing after labeling): below 95%
technetium-99m labeling yield ([2]; 3 hr. standing after labeling, listed as Peptide-3): 88.9%
technetium-99m labeling yield ([2]; 6 hr. standing after labeling): 84.4%

Substance: YCAREPPTRTFAYWGQG [peptide-4]
technetium-99m labeling yield ([2]; 1 hr. standing after labeling): 81.5%
technetium-99m labeling yield ([2]; 3 hr. standing after labeling): below 95%
technetium-99m labeling yield ([2]; 3 hr. standing after labeling, listed as Peptide-4): 81.2%
technetium-99m labeling yield ([2]; 6 hr. standing after labeling): 79.9%

Substance: YCAREPPTRTNAYWG [peptide-2, conventional peptide without N-terminal Lys, used for comparison]
technetium-99m labeling yield ([2]; 1 hr. standing after labeling): 85.5%
technetium-99m labeling yield ([2]; 3 hr. standing after labeling): below 95%
technetium-99m labeling yield ([2]; 3 hr. standing after labeling, listed as Peptide-2): 71.8%
technetium-99m labeling yield ([2]; 6 hr. standing after labeling): 78.5%
